Where no end group is shown, it is not given here.
T1: TAK1 expressed from yeast 2-hybrid expression vector pBTMHu11F (Homo sapiens (Human)) (UniProt O43318)
T1 sequence: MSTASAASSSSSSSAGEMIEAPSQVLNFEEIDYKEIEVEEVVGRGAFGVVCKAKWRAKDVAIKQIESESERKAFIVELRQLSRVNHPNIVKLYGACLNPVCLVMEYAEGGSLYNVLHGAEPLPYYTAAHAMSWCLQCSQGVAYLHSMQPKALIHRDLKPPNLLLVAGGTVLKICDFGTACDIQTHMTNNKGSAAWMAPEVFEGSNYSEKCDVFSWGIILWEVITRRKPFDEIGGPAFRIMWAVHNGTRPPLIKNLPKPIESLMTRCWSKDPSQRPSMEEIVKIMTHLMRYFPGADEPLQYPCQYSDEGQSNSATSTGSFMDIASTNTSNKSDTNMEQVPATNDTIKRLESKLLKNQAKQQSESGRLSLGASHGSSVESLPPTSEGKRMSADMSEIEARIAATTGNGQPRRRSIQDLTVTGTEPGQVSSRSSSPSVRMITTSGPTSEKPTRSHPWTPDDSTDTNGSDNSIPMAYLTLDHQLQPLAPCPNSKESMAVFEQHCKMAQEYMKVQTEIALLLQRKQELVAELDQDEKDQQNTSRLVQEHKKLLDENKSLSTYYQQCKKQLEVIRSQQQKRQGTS


What follows are binders tested against T1, TAK1 expressed from yeast 2-hybrid expression vector pBTMHu11F (Homo sapiens (Human)) (assay: cell-based or functional assay).

Binder	β-galactosidase activity of yeast L40 (yeast 2-hybrid), ratio based on TAB1C68 (ratio to TAB1C68)
VDFAEFYRLWSVDHGEQSVVTAP (peptide, not shown: large carriers, also: fusion with GAL4 transcription activation domain) [TAB1C23, fusion with the GAL4 transcription activated domain (pGAD-TAB1C23)]	0.05
AEFYRLWSVDHGEQSVVTAP (peptide, not shown: large carriers, also: fusion with GAL4 transcription activation domain) [TAB1C20, fusion with the GAL4 transcription activated domain (pGAD-TAB1C20)]	0.03
YVDFAEFYRLWSVDHGEQSVVTAP (peptide, not shown: large carriers, also: fusion with GAL4 transcription activation domain) [TAB1C24, fusion with the GAL4 transcription activated domain (pGAD-TAB1C24)]	0.35

Further lines, results first:

β-galactosidase activity of yeast L40 (yeast 2-hybrid), ratio based on TAB1C68 (ratio to TAB1C68)	Binder
0.03	FAEFYRLWSVDHGEQSVVTAP (peptide, not shown: large carriers, also: fusion with GAL4 transcription activation domain) [TAB1C21, fusion with the GAL4 transcription activated domain (pGAD-TAB1C21)]
0.03	DFAEFYRLWSVDHGEQSVVTAP (peptide, not shown: large carriers, also: fusion with GAL4 transcription activation domain) [TAB1C22, fusion with the GAL4 transcription activated domain (pGAD-TAB1C22)]
